Experimental data published in publication PMC3875364.
Like-named read-outs stand apart in the source and are kept apart here.

Legend:
Experiment in all cases: fluorescence anisotropy
NC(1-55) WT, zinc-bound [1] = biological target: T1, NC(1-55) WT, zinc-bound (HIV-1 (NL4-3 isolate), UniProt P12493 378-432)
NC(1-55) WT, zinc-bound [2] = biological target: T1, NC(1-55) WT, zinc-bound; remark: listed apart in the source
NC(1-28) = biological target: T2, NC(1-28) (HIV-1 (NL4-3 isolate), UniProt P12493 378-405)
T2 chain: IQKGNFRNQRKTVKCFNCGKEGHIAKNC

NC(29-55) = NC(29-55) (HIV-1 (NL4-3 isolate), UniProt P12493 406-432)
NC(1-35) = biological target: T3, NC(1-35) (HIV-1 (NL4-3 isolate), UniProt P12493 378-412)
T3 chain: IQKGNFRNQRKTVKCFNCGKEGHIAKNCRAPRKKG

CTTCTTTGGGAGTGAATTAG (ssDNA) [5'-FAM-DNA20]
Kd (NC(1-55) WT, zinc-bound [1]): 16 ± 5 nM
Kd (NC(1-55) WT, zinc-bound [2]): 57 ± 22 nM
Kd (NC(1-28)): 731 ± 150 nM
Kd (NC(29-55)): 867 ± 3 nM
Kd (NC(1-35)): 86 ± 19 nM
